Experimental findings from patent US20240270846A1 (published 2024) are described below.

B1: GLS3000 H27dA one-arm antibody (H chain CE115HA000) (antibody, human IgG1, kappa, L234A L235A, N297A, name in Kabat numbering)
heavy: QVQLVESGGGVVQPGRSLRLSCAASGFTFSNAWMHWVRQAPGKGLEWVAQIKAKSNNYATYYAESVKGRFTISRDDSKNSLYLQMNSLKTEDTAVYYCRYVHYGAYYGVDAWGQGTTVTVSSASTKGPSVFPLAPSSKSTSGGTAALGCLVKDYFPEPVTVSWNSGALTSGVHTFPAVLQSSGLYSLSSVVTVPSSSLGTQTYICNVNHKPSNTKVDKKVEPKSCDKTHTCPPCPAPEAAGGPSVFLFPPKPKDTLMISRTPEVTCVVVDVSHEDPEVKFNWYVDGVEVHNAKTKPREEQYASTYRVVSVLTVLHQDWLNGKEYKCKVSNKALPAPIEKTISKAKGQPREPQVYTLPPSRCELTKNQVSLSCAVKGFYPSDIAVEWESNGQPENNYKTTPPVLDSDGSFFLVSKLTVDKSRWQQGNVFSCSVMHEALHNHYTQKSLSLSPDYKDDDDK
chain: EPKSSDKTHTCPPCPAPELLGGPSVFLFPPKPKDTLMISRTPEVTCVVVDVSHEDPEVKFNWYVDGVEVHNAKTKPREEQYNSTYRVVSVLTVLHQDWLNGKEYKCKVSNKALPAPIEKTISKAKGQPREPQVCTLPPSRDELTKNQVSLWCLVKGFYPSDIAVEWESNGQPENNYKTTPPVLDSDGSFFLYSKLTVDKSRWQQGNVFSCSVMHEALHNRYTQKSLSLSP
light: DIVMTQSPLSLPVTPGEPASISCRSSQSLVASNRNTYLHWYQQKPGQAPRLLIYKVSNRFSGVPDRFSGSGSGTDFTLKISRVEAEDVGVYYCGQGTQVPYTFGQGTKLEIKRTVAAPSVFIFPPSDEQLKSGTASVVCLLNNFYPREAKVQWKVDNALQSGNSQESVTEQDSKDSTYSLSSTLTLSKADYEKHKVYACEVTHQGLSSPVTKSFNRGEC
notes: one-arm antibody
B2: GLS3000 H27dK one-arm antibody (H chain CE115HA000) (antibody, human IgG1, kappa, L234A L235A, N297A, name in Kabat numbering)
heavy: B1 heavy
chain: B1 chain
light: B1 light with A31K
notes: one-arm antibody
B3: GLS3000 H27dN one-arm antibody (H chain CE115HA000) (antibody, human IgG1, kappa, L234A L235A, N297A, name in Kabat numbering)
heavy: B1 heavy
chain: B1 chain
light: B1 light with A31N
notes: one-arm antibody
B4: GLS3000 F55A one-arm antibody (H chain CE115HA000) (antibody, human IgG1, kappa, L234A L235A, N297A, name in Kabat numbering)
heavy: B1 heavy
chain: B1 chain
light: B1 light with A31H, F60A
notes: one-arm antibody
B5: GLS3000 K50A one-arm antibody (H chain CE115HA000) (antibody, human IgG1, kappa, L234A L235A, N297A, name in Kabat numbering)
heavy: B1 heavy
chain: B1 chain
light: B1 light with A31H, K55A
notes: one-arm antibody
B6: GLS3000 H27dD one-arm antibody (H chain CE115HA000) (antibody, human IgG1, kappa, L234A L235A, N297A, name in Kabat numbering)
heavy: B1 heavy
chain: B1 chain
light: B1 light with A31D
notes: one-arm antibody
B7: GLS3000 F55D one-arm antibody (H chain CE115HA000) (antibody, human IgG1, kappa, L234A L235A, N297A, name in Kabat numbering)
heavy: B1 heavy
chain: B1 chain
light: B1 light with A31H, F60D
notes: one-arm antibody
B8: GLS3000 H27dF one-arm antibody (H chain CE115HA000) (antibody, human IgG1, kappa, L234A L235A, N297A, name in Kabat numbering)
heavy: B1 heavy
chain: B1 chain
light: B1 light with A31F
notes: one-arm antibody
B9: GLS3000 H27dY one-arm antibody (H chain CE115HA000) (antibody, human IgG1, kappa, L234A L235A, N297A, name in Kabat numbering)
heavy: B1 heavy
chain: B1 chain
light: B1 light with A31Y
notes: one-arm antibody
B10: GLS3000 H27dQ one-arm antibody (H chain CE115HA000) (antibody, human IgG1, kappa, L234A L235A, N297A, name in Kabat numbering)
heavy: B1 heavy
chain: B1 chain
light: B1 light with A31Q
notes: one-arm antibody
B11: GLS3000 H27dV one-arm antibody (H chain CE115HA000) (antibody, human IgG1, kappa, L234A L235A, N297A, name in Kabat numbering)
heavy: B1 heavy
chain: B1 chain
light: B1 light with A31V
notes: one-arm antibody
B12: GLS3000 H34D one-arm antibody (H chain CE115HA000) (antibody, human IgG1, kappa, L234A L235A, N297A, name in Kabat numbering)
heavy: B1 heavy
chain: B1 chain
light: B1 light with A31H, H39D
notes: one-arm antibody
B13: GLS3000 L27bD one-arm antibody (H chain CE115HA000) (antibody, human IgG1, kappa, L234A L235A, N297A, name in Kabat numbering)
heavy: B1 heavy
chain: B1 chain
light: B1 light with L29D, A31H
notes: one-arm antibody
B14: GLS3000 H27dT one-arm antibody (H chain CE115HA000) (antibody, human IgG1, kappa, L234A L235A, N297A, name in Kabat numbering)
heavy: B1 heavy
chain: B1 chain
light: B1 light with A31T
notes: one-arm antibody
B15: GLS3000 H27dM one-arm antibody (H chain CE115HA000) (antibody, human IgG1, kappa, L234A L235A, N297A, name in Kabat numbering)
heavy: B1 heavy
chain: B1 chain
light: B1 light with A31M
notes: one-arm antibody
B16: GLS3000 H27dW one-arm antibody (H chain CE115HA000) (antibody, human IgG1, kappa, L234A L235A, N297A, name in Kabat numbering)
heavy: B1 heavy
chain: B1 chain
light: B1 light with A31W
notes: one-arm antibody
B17: GLS3000 H27dR one-arm antibody (H chain CE115HA000) (antibody, human IgG1, kappa, L234A L235A, N297A, name in Kabat numbering)
heavy: B1 heavy
chain: B1 chain
light: B1 light with A31R
notes: one-arm antibody
B18: GLS3000 H27dG one-arm antibody (H chain CE115HA000) (antibody, human IgG1, kappa, L234A L235A, N297A, name in Kabat numbering)
heavy: B1 heavy
chain: B1 chain
light: B1 light with A31G
notes: one-arm antibody
B19: GLS3000 H27dS one-arm antibody (H chain CE115HA000) (antibody, human IgG1, kappa, L234A L235A, N297A, name in Kabat numbering)
heavy: B1 heavy
chain: B1 chain
light: B1 light with A31S
notes: one-arm antibody
B20: GLS3000 H34A one-arm antibody (H chain CE115HA000) (antibody, human IgG1, kappa, L234A L235A, N297A, name in Kabat numbering)
heavy: B1 heavy
chain: B1 chain
light: B1 light with A31H, H39A
notes: one-arm antibody
B21: GLS3000 H27dL one-arm antibody (H chain CE115HA000) (antibody, human IgG1, kappa, L234A L235A, N297A, name in Kabat numbering)
heavy: B1 heavy
chain: B1 chain
light: B1 light with A31L
notes: one-arm antibody
B22: GLS3000 K50D one-arm antibody (H chain CE115HA000) (antibody, human IgG1, kappa, L234A L235A, N297A, name in Kabat numbering)
heavy: B1 heavy
chain: B1 chain
light: B1 light with A31H, K55D
notes: one-arm antibody
B23: GLS3000 H27dE one-arm antibody (H chain CE115HA000) (antibody, human IgG1, kappa, L234A L235A, N297A, name in Kabat numbering)
heavy: B1 heavy
chain: B1 chain
light: B1 light with A31E
notes: one-arm antibody
B24: GLS3000 H27dI one-arm antibody (H chain CE115HA000) (antibody, human IgG1, kappa, L234A L235A, N297A, name in Kabat numbering)
heavy: B1 heavy
chain: B1 chain
light: B1 light with A31I
notes: one-arm antibody
B25: GLS3000 H27dP one-arm antibody (H chain CE115HA000) (antibody, human IgG1, kappa, L234A L235A, N297A, name in Kabat numbering)
heavy: B1 heavy
chain: B1 chain
light: B1 light with A31P
notes: one-arm antibody
B26: CE115HA000/GLS3000 Y96F one-arm antibody (antibody, human IgG1, kappa, L234A L235A, N297A, name in Kabat numbering)
heavy: B1 heavy
chain: B1 chain
light: B1 light with A31H, Y101F
notes: one-arm IgG1
B27: CE115HA000/GLS3000 Y96H one-arm antibody (antibody, human IgG1, kappa, L234A L235A, N297A, name in Kabat numbering)
heavy: B1 heavy
chain: B1 chain
light: B1 light with A31H, Y101H
notes: one-arm IgG1
B28: CE115HA000/GLS3000 Y96E one-arm antibody (antibody, human IgG1, kappa, L234A L235A, N297A, name in Kabat numbering)
heavy: B1 heavy
chain: B1 chain
light: B1 light with A31H, Y101E
notes: one-arm IgG1
B29: CE115HA000/GLS3000 Y32P one-arm antibody (antibody, human IgG1, kappa, L234A L235A, N297A, name in Kabat numbering)
heavy: B1 heavy
chain: B1 chain
light: B1 light with A31H, Y37P
notes: one-arm IgG1
B30: CE115HA000/GLS3000 Y96L one-arm antibody (antibody, human IgG1, kappa, L234A L235A, N297A, name in Kabat numbering)
heavy: B1 heavy
chain: B1 chain
light: B1 light with A31H, Y101L
notes: one-arm IgG1
B31: CE115HA000/GLS3000 Y96D one-arm antibody (antibody, human IgG1, kappa, L234A L235A, N297A, name in Kabat numbering)
heavy: B1 heavy
chain: B1 chain
light: B1 light with A31H, Y101D
notes: one-arm IgG1

Residue numbers refer to the chain shown, from its start. Names may count otherwise.

The first experiment addresses T1, CD3 epsilon homodimer protein (UniProt P07766 23-126).
T1 construct: also called CD3 (CD3 epsilon)
In words: SPR, CD3e homodimer on chip.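 Note: surface plasmon resonance at 25 degrees C, antibodies flowed as analyte over CD3 epsilon homodimer amine-coupled to a CM4 chip, running buffer HBS-EP+.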
T1 sequence (P07766 23-126): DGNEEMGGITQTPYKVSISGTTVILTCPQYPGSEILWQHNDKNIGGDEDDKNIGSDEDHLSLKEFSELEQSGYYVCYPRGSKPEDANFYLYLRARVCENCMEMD
Consider B1, for which the “ratio of amounts bound (altered form / unaltered GLS3000 antibody)” value came to 0.48.

Turning to B2, the “ratio of amounts bound (altered form / unaltered GLS3000 antibody)” value is 0.29.

In the case of B3, the “ratio of amounts bound (altered form / unaltered GLS3000 antibody)” value is 0.3.

On to B4, for which the “ratio of amounts bound (altered form / unaltered GLS3000 antibody)” value turned out to be 1.13.

With B5, the “ratio of amounts bound (altered form / unaltered GLS3000 antibody)” value is 0.23.

Consider B6, for which the “ratio of amounts bound (altered form / unaltered GLS3000 antibody)” value was 0.22.

B7: the “ratio of amounts bound (altered form / unaltered GLS3000 antibody)” value turned out to be 0.65.

With B8, the “ratio of amounts bound (altered form / unaltered GLS3000 antibody)” value worked out at 0.63.

On to B9, for which the “ratio of amounts bound (altered form / unaltered GLS3000 antibody)” value was determined as 0.64.

As for B10, the “ratio of amounts bound (altered form / unaltered GLS3000 antibody)” value was found to be 0.25.

For B11, the “ratio of amounts bound (altered form / unaltered GLS3000 antibody)” value was found to be 0.3.

On to B12, for which the “ratio of amounts bound (altered form / unaltered GLS3000 antibody)” value was determined as 0.22.

In the case of B13, the “ratio of amounts bound (altered form / unaltered GLS3000 antibody)” value worked out at 0.17.

For the molecule B14, the “ratio of amounts bound (altered form / unaltered GLS3000 antibody)” value came to 0.29.

For the molecule B15, the “ratio of amounts bound (altered form / unaltered GLS3000 antibody)” value worked out at 0.3.

On to B16, for which the “ratio of amounts bound (altered form / unaltered GLS3000 antibody)” value came to 0.39.

On to B17, for which the “ratio of amounts bound (altered form / unaltered GLS3000 antibody)” value came out at 0.31.

In the case of B18, the “ratio of amounts bound (altered form / unaltered GLS3000 antibody)” value came to 0.3.

As to B19, the “ratio of amounts bound (altered form / unaltered GLS3000 antibody)” value was 0.32.

As to B20, the “ratio of amounts bound (altered form / unaltered GLS3000 antibody)” value was 1.06.

For the molecule B21, the “ratio of amounts bound (altered form / unaltered GLS3000 antibody)” value stood at 0.3.

As to B22, the “ratio of amounts bound (altered form / unaltered GLS3000 antibody)” value turned out to be 0.22.

B23: the “ratio of amounts bound (altered form / unaltered GLS3000 antibody)” value amounted to 0.23.

As to B24, the “ratio of amounts bound (altered form / unaltered GLS3000 antibody)” value stood at 0.26.

Turning to B25, the “ratio of amounts bound (altered form / unaltered GLS3000 antibody)” value amounted to 0.24.

Another experiment concerns the target T2, CD3 epsilon homodimer protein (UniProt P07766 23-126).
T2 construct: also called CD3 (CD3 epsilon)
In words: SPR (Biacore T200), CD3e homodimer on CM4 chip, antibody as analyte; KD ratio vs unaltered GLS3000.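 Note: CD3 epsilon homodimer amine-coupled to the sensor surface, antibodies injected as analyte at 25 °C with HBS-EP+ running buffer.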
T2 sequence (P07766 23-126): as above
Method: An appropriate amount of CD3 epsilon homodimer protein was immobilized onto Sensor chip CM4 (GE Healthcare Japan Corp.) by the amine coupling method. Then, the antibody having an appropriate concentration was injected thereto as an analyte and allowed to interact with the CD3 epsilon homodimer protein on the sensor chip. Then, the sensor chip was regenerated by the injection of 10 mmol/L glycine-HCl (pH 1.5). The assay was conducted at 25 degrees C., and HBS-EP+(GE Healthcare Japan Corp.) was used as a running buffer. […] Each parameter was calculated using Biacore T200 Evaluation Software (GE Healthcare Japan Corp.).
Specifically, when the amount of the GLS3000-containing antibody bound was defined as X and the amount of the L chain one-amino acid altered form bound was defined as Y, a value of Z (ratio of amounts bound)=Y/X was used.
On to B26, for which the “KD ratio to GLS3000” value turned out to be 0.86 ratio.

Turning to B27, the “KD ratio to GLS3000” value was determined as 80.3 ratio.

For the molecule B28, the “KD ratio to GLS3000” value was 46.8 ratio.

For B29, the “KD ratio to GLS3000” value was determined as 62 ratio.

On to B30, for which the “KD ratio to GLS3000” value was determined as 1.84 ratio.

For B31, the “KD ratio to GLS3000” value stood at 40.9 ratio.
